The values below come from PMC10462004.

The target of the assay is mouse PD-1 (programmed cell death-1), wild type, expressed on CHO cells (mouse) (UniProt Q02242). The assay is described as follows: biomembrane force probe.
Chain of UniProt Q02242 (Q02242 25-288): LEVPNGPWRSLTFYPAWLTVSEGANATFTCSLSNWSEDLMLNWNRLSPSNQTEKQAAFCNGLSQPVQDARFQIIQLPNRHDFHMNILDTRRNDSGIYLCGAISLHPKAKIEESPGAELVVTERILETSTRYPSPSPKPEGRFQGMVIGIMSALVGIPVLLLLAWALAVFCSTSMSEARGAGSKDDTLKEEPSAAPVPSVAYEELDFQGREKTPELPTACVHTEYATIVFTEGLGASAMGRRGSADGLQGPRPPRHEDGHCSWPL

Substance “mouse PD-L2 with C-terminal biotin (from UniProt Q9WUL5 20-221) (ligand)” showed an F1/2 (force at which 50% of the bonds rupture) of 12.1 pN.
